In publication PMC9482650, “Quantitative fragmentomics allow affinity mapping of interactomes” (Nature Communications, 2022):

T1: RAPGEF6, Q8TEU7
T1 sequence (Q8TEU7 525-625, limits assumed, looked up): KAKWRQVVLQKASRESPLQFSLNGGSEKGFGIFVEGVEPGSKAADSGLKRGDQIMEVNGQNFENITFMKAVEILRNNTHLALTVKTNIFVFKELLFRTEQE

T2: APBA3_1, O96018
T2 sequence (O96018 389-490, limits assumed, looked up): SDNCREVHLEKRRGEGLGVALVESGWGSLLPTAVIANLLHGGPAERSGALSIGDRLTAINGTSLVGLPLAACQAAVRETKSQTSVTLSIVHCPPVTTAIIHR

T3: FRMPD1, Q5SYB0
T3 sequence (Q5SYB0 52-145, limits assumed, looked up): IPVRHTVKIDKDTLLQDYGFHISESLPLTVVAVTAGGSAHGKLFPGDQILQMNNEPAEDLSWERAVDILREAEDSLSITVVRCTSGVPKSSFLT

T4: LNX2_3, Q8N448
T4 sequence (Q8N448 463-564, limits assumed, looked up): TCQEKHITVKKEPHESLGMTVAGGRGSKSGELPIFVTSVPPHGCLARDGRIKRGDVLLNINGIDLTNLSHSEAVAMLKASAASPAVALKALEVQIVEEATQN

T5: LRRC7, Q96NW7
T5 sequence (Q96NW7 1440-1537, limits assumed, looked up): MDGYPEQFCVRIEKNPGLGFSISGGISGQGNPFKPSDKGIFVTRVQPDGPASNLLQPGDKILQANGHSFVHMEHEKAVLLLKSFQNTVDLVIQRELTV

T6: APBA1_1, Q02410
T6 sequence (Q02410 651-752, limits assumed, looked up): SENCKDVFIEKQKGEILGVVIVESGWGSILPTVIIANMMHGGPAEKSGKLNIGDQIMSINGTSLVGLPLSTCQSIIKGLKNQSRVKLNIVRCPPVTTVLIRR

T7: ARHGAP21, Q5T5U3
T7 sequence (Q5T5U3 45-169, limits assumed, looked up): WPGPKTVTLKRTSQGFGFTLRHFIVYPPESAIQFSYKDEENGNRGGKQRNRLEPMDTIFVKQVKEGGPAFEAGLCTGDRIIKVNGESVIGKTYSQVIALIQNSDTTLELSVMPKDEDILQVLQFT

T8: DLG3_3, Q92796
T8 sequence (Q92796 374-475, limits assumed, looked up): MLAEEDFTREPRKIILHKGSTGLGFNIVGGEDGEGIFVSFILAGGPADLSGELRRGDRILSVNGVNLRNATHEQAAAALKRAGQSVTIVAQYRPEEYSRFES

T9: TJP3_3, O95049
T9 sequence (O95049 375-456, limits assumed, looked up): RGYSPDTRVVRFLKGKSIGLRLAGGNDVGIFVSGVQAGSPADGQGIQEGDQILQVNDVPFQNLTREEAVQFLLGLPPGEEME

T10: LIN7C, Q9NUP9
T10 sequence (Q9NUP9 88-185, limits assumed, looked up): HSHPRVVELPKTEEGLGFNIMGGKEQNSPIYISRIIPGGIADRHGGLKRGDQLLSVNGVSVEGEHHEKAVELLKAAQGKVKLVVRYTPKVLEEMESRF

T11: SHANK1, Q9Y566
T11 sequence (Q9Y566 658-767, limits assumed, looked up): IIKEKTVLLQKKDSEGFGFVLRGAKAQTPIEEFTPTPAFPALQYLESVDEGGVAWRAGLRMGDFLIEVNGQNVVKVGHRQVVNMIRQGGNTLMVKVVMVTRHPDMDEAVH


Key:
Assay in all cases: holdup assay
Set-up in all cases: key: below the threshold = too weak to quantify, mostly under pKd 3.1 to 4
Details in all cases: plain residues with an end cap or a label only (N-terminal biotin on a linker: ado-ado)
RAPGEF6, Q8TEU7 = target: T1, RAPGEF6, Q8TEU7
APBA3_1, O96018 = target: T2, APBA3_1, O96018
MAGI2_4, Q86UL8 = target: MAGI2_4, Q86UL8
FRMPD1, Q5SYB0 = target: T3, FRMPD1, Q5SYB0
FRMPD2_1, Q68DX3 = target: FRMPD2_1, Q68DX3
MAGI3_2, Q5TCQ9 = target: MAGI3_2, Q5TCQ9
LNX2_3, Q8N448 = target: T4, LNX2_3, Q8N448
LRRC7, Q96NW7 = target: T5, LRRC7, Q96NW7
APBA1_1, Q02410 = target: T6, APBA1_1, Q02410
ARHGAP21, Q5T5U3 = target: T7, ARHGAP21, Q5T5U3
NHERF4_2, Q86UT5 = target: NHERF4_2, Q86UT5
PTPN3, P26045 = target: PTPN3, P26045
NHERF4_1, Q86UT5-2 = target: NHERF4_1, Q86UT5-2
Inadl_2, Q8NI35 = target: Inadl_2, Q8NI35
LDB3, O75112 = target: LDB3, O75112
Inadl_8, Q8NI35 = target: Inadl_8, Q8NI35
MAGI2_3, Q86UL8 = target: MAGI2_3, Q86UL8
DLG3_3, Q92796 = target: T8, DLG3_3, Q92796
TJP3_3, O95049 = target: T9, TJP3_3, O95049
PARD3_3, Q8TEW0 = target: PARD3_3, Q8TEW0
AHNAK1, Q09666 = target: AHNAK1, Q09666
DLG2_2, Q15700 = target: DLG2_2, Q15700
PDLIM1, O00151 = target: PDLIM1, O00151
LIN7C, Q9NUP9 = target: T10, LIN7C, Q9NUP9
Inadl_4, Q8NI35 = target: Inadl_4, Q8NI35
SHANK1, Q9Y566 = target: T11, SHANK1, Q9Y566
GRID2IP_1, A4D2P6 = target: GRID2IP_1, A4D2P6
GRID2IP_1, A4D2P6, sequence (A4D2P6 1-87): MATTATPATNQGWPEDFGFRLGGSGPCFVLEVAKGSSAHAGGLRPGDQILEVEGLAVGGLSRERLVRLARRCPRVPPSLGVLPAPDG

NHERF4_1, Q86UT5-2, sequence (Q86UT5 other isoform, or with tags, fused parts or gaps): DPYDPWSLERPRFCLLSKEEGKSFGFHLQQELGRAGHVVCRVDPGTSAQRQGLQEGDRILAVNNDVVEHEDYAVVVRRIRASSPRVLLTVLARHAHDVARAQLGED
MAGI2_3, Q86UL8, sequence (Q86UL8 600-682): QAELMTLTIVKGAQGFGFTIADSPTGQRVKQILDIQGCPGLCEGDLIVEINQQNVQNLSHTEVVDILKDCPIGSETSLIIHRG
PDLIM1, O00151, sequence (O00151 1-87): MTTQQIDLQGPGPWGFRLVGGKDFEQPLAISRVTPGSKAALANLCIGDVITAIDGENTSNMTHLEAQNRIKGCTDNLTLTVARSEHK
Inadl_2, Q8NI35, sequence (Q8NI35 238-335): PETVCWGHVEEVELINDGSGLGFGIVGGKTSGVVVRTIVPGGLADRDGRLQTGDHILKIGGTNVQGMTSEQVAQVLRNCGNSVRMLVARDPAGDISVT
Inadl_4, Q8NI35, sequence (Q8NI35 547-651): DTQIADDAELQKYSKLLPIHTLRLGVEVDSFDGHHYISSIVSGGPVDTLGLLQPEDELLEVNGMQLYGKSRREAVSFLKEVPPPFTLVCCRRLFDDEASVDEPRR
Inadl_8, Q8NI35, sequence (Q8NI35 1425-1530): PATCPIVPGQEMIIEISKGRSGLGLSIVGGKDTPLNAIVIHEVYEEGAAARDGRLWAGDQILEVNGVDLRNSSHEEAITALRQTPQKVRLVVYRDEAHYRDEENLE
DLG2_2, Q15700, sequence (Q15700 189-283): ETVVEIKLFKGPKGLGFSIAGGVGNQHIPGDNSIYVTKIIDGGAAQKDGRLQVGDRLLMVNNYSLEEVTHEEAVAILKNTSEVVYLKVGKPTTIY
PARD3_3, Q8TEW0, sequence (Q8TEW0 582-685): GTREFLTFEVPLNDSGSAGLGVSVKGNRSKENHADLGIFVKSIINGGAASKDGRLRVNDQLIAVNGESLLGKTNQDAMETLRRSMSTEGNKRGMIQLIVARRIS
AHNAK1, Q09666, sequence (Q09666 4-100): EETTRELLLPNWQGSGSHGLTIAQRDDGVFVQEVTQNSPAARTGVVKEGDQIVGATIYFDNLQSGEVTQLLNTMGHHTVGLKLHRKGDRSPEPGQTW
FRMPD2_1, Q68DX3, sequence (Q68DX3 770-861): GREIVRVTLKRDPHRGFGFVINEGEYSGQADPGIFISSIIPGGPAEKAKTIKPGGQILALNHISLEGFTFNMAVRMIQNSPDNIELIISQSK
MAGI2_4, Q86UL8, sequence (Q86UL8 772-865): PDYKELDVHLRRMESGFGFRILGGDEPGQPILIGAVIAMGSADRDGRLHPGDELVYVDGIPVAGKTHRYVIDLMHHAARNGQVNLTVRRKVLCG
MAGI3_2, Q5TCQ9, sequence (Q5TCQ9 398-503): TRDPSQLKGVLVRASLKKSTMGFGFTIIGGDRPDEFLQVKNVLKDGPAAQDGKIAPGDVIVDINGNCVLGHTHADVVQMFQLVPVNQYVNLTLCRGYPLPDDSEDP
NHERF4_2, Q86UT5, sequence (Q86UT5 220-308): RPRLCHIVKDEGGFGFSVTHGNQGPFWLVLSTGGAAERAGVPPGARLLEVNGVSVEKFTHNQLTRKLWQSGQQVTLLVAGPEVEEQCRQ
PTPN3, P26045, sequence (P26045 505-587): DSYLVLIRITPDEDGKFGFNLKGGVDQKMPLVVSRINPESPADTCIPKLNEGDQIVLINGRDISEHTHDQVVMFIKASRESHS
LDB3, O75112, sequence (O75112 1-94): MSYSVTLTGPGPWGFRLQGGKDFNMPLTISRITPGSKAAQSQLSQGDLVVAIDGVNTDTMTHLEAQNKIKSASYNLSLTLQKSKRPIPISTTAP

Row | pKd (RAPGEF6, Q8TEU7) | pKd (APBA3_1, O96018) | pKd (MAGI2_4, Q86UL8) | pKd (FRMPD1, Q5SYB0) | pKd (FRMPD2_1, Q68DX3) | pKd (MAGI3_2, Q5TCQ9) | pKd (LNX2_3, Q8N448) | pKd (LRRC7, Q96NW7) | pKd (APBA1_1, Q02410) | pKd (ARHGAP21, Q5T5U3) | pKd (NHERF4_2, Q86UT5) | pKd (PTPN3, P26045) | pKd (NHERF4_1, Q86UT5-2) | pKd (Inadl_2, Q8NI35) | pKd (LDB3, O75112) | pKd (Inadl_8, Q8NI35) | pKd (MAGI2_3, Q86UL8) | pKd (DLG3_3, Q92796) | pKd (TJP3_3, O95049) | pKd (PARD3_3, Q8TEW0) | further results | Binder
1 | below the threshold | below the threshold | 3.91 | below the threshold | below the threshold | 5.19 | below the threshold | below the threshold | below the threshold | 3.73 | below the threshold | 4.36 | 3.76 | below the threshold | below the threshold | 4.33 | 4.1 | 4.27 | below the threshold | below the threshold | pKd (AHNAK1, Q09666): below the threshold; pKd (DLG2_2, Q15700): 3.74; pKd (PDLIM1, O00151): below the threshold; pKd (LIN7C, Q9NUP9): below the threshold; pKd (Inadl_4, Q8NI35): below the threshold; pKd (SHANK1, Q9Y566): 4.88; pKd (GRID2IP_1, A4D2P6): below the threshold | LPHGHSTTRV [NLGN4X, Q8N0W4]
2 | below the threshold | below the threshold | 4.09 | below the threshold | 3.85 | 3.85 | below the threshold | 4.03 | 3.48 | below the threshold | below the threshold | 3.88 | 3.47 | 3.94 | below the threshold | 3.69 | below the threshold | below the threshold | 5 | 3.73 | pKd (AHNAK1, Q09666): below the threshold; pKd (DLG2_2, Q15700): 3.62; pKd (PDLIM1, O00151): below the threshold; pKd (LIN7C, Q9NUP9): below the threshold; pKd (Inadl_4, Q8NI35): below the threshold; pKd (SHANK1, Q9Y566): below the threshold; pKd (GRID2IP_1, A4D2P6): below the threshold | YYKRPVQEWV [MMP24, Q9Y5R2]
3 | below the threshold | below the threshold | below the threshold | below the threshold | below the threshold | below the threshold | below the threshold | below the threshold | below the threshold | 3.59 | below the threshold | 3.91 | 4.3 | below the threshold | 5.19 | below the threshold | below the threshold | below the threshold | below the threshold | below the threshold | pKd (AHNAK1, Q09666): below the threshold; pKd (DLG2_2, Q15700): below the threshold; pKd (PDLIM1, O00151): 5.23; pKd (LIN7C, Q9NUP9): below the threshold; pKd (Inadl_4, Q8NI35): below the threshold; pKd (SHANK1, Q9Y566): below the threshold; pKd (GRID2IP_1, A4D2P6): below the threshold | VRNLPESEEL [MYOZ3, Q8TDC0]
4 | below the threshold | below the threshold | below the threshold | below the threshold | below the threshold | below the threshold | below the threshold | below the threshold | below the threshold | 3.56 | below the threshold | 3.95 | 4.21 | below the threshold | below the threshold | below the threshold | below the threshold | below the threshold | below the threshold | below the threshold | pKd (AHNAK1, Q09666): below the threshold; pKd (DLG2_2, Q15700): below the threshold; pKd (PDLIM1, O00151): below the threshold; pKd (LIN7C, Q9NUP9): 4.09; pKd (Inadl_4, Q8NI35): below the threshold; pKd (SHANK1, Q9Y566): below the threshold; pKd (GRID2IP_1, A4D2P6): below the threshold | SKSNFGSEPL [KIF17, Q9P2E2]
5 | below the threshold | below the threshold | below the threshold | below the threshold | below the threshold | below the threshold | below the threshold | below the threshold | below the threshold | below the threshold | below the threshold | 4.25 | 3.92 | below the threshold | 5.26 | below the threshold | below the threshold | below the threshold | below the threshold | below the threshold | pKd (AHNAK1, Q09666): below the threshold; pKd (DLG2_2, Q15700): below the threshold; pKd (PDLIM1, O00151): 5.1; pKd (LIN7C, Q9NUP9): below the threshold; pKd (Inadl_4, Q8NI35): below the threshold; pKd (SHANK1, Q9Y566): below the threshold; pKd (GRID2IP_1, A4D2P6): below the threshold | DTTVPESEDL [MYOZ2, Q9NPC6]
